Measured values published in US20150147342A1 (published 2015).
Where a chain is given by its changes, count along the chain named.

B1: H1M724N (antibody, V domains shown)
VH: QVQLVESGGGVVQPGRSLRLSCAASGFTLSNYGMHWVRQAPGKGLEWVAVIWHDGSNTYYADSVKGRFTISRDNSKNTLYLQMNSLRAEDTAVYYCTREGLDFWSGYYPNWFDPWGQGTLVTVSS
VL: DIQMTQSPSSLSASVGDRVTITCRASQGIRNDLGWYQQKPGKAPKRLIYAASNLQGGVPSRFSGSGSGTEFTLTISSLQPEDFAAYYCLQHNIYPLTFGGGTKVEIK
B2: H1M732N (antibody, V domains shown)
VH: EVQLVESGGGLVRPGGSLRLSCAASGFTFTNAWMSWVRQAPGKGLEWIGQIKSKTDGGTIDYAAPVKGRFTVSRDDSENTLFLQMNSLKTEDTAVYYCAGNWNYVDFDYWGQGTLVTVSS
VL: B1 VL with G28D, N53S, A85T, I93S, L96F, G100P, E105D
B3: H2M743N (antibody, V domains shown)
VH: EVQLLESGGGLVQPGGSLRLSCAASGFTFRKYAMSWVRQAPGKGLEWVSVISVSGGNTYYADSVKGRFTISRDNSKNTLYLQLNSLRAEDTAVYYCAKDLTDIVLMVYVDYWGQGTLVTVSS
VL: DIQMTQSPSSVSASVGDRVTITCRASQDIDRWLAWYQQKPGKAPKLLIYAASSLQSGVPSRFSGSGSGTDFTLTISTLQPEDFATYYCQQANSLPFTFGGGTKVEIK
B4: H2M742N (antibody, V domains shown)
VH: DVQLLESGGDLVQPGGSLRLSCEASGFTFRNYVMIWVRQAPGKGLEWVSGISNSGGTTHYTDSVKGRFTISRDNSKNTLYLQINSLRAEDTAVYYCAKGYLDTSLIEGNWFDPWGQGTLVTVSS
VL: NIVMTQSPLSLPVTPGEPASISCRSSQSLLHSNGFNYLNWFLQKPGQSPQLLIYLGSNRASGVPDKFSGSGSGTDFTLNINRVEAEDVGIYFCMQTLQTPLTFGGGTKVEIK
B5: H1M728N (antibody, V domains shown)
VH: EVQLVESGGDLVQPGGSLRLSCTASGFTFSKYWMTWVRQAPGRGLEWVANIKEDGNEKYFLDSVKGRFTISRDNAKDLLFLQMNSLRGEDTAVYYCVRDRGIEVAGPFDYWGQGTLVTVSS
VL: DIQMTQSPSTLSASVGDRVTVTCRASQTIINWLAWYQQKPGKAPKLLISKASSLESGVPSRFSGSGSGTEFTLTISSLQPDDFATYYCQQYNRYWTFGQGTMVEIK
B6: H2M750N (antibody, V domains shown)
VH: QVKLVESGGGVVQPGRSLRVSCAASGFTFSSYGMHWVRQAPGKGLEWLAIIWYDGDNKYYSDSVKGRFTISRDNSKNTLYLQMNSLRAEDTAEYYCVRDASIASRFLDYWGQGTLVTVSS
VL: DIQMTQSPSSLSASIGDRVTITCRATQDINNYLAWFQQKPGKAPKSLIYATSNLQSGVPSKFSGSGSGTDYTLTISSLQPEDFSTYYCQQYHSYPLTFGGGTKVEIK
B7: H2M730N (antibody, V domains shown)
VH: EVQLVESGGGLVQPGGSLRLSCAASGFAFRSYWMTWVRQAPGKGLEWVANIQQDGNDKYYVDSVKGRFTISRDNAKNSLYLQMNSLRAEDTAVYYCARDTGIAEAGPFDYWGQGTLVTVSS
VL: B5 VL with T20S, V21I, N31S, K45R, S49Y, S76N, M102K
B8: H1H685P (antibody, V domains shown)
VH: EVQLVESGGGLVQPGGSLRLSCAASGFTFSSYDIHWVRQATGKGLEWVSAIGPAGDTYYPGSVKGRFTISRENAKNSLYLQMNSLRAGDTAVYYCARGLITFGGLIAPFDYWGQGTLVTVSS
VL: EIVLTQSPGTLSLSPGERATLSCRASQSVSSTYLAWYQQKPGQAPRLLIYGASSRATGIPDRFSGSGSGTDFTLTISRLEPEDFAVYYCQHYDNSQTFGQGTKVEIK
notes: Fully human antibody, human IgG1; also called mAb1
B9: H1H696P (antibody, V domains shown)
VH: QVQLVESGGGLVKPGGSLRLSCAASGFTFSDYYMSWIRQAPGKGLEWVSYISYTGRTIYYADSVKGRFTISRDNAKNSLYLQMNSLRAEDTAVYYCARDTDYGDFFDYWGQGTLVTVSS
VL: B6 VL with I15V, T26S, D28G, N30S, T51A, N53S, Y71F, S84A, H92N
B10: H1H695P (antibody, V domains shown)
VH: QVQLVESGGGVVQPGRSLRLSCAASGFTFSSYGMHWVRQAPGKGLEWVAVMWYDETNKYYADSVKGRFTISRDNSKNTLYLQMNSLRAEDTAVYYCARYSGYEDYYHGMDVWGQGTTVTVS
VL: EIVMTQSPATPSVSPGERATLSCRASQSISSNLAWYQQKPGQAPRLLIYGASTRATGIPARFSGSGSGTEFTLTISSLQSEDFAVYYCQHYNNWITFGQGTRLEIK

Target: T1, Dimeric fibrinogen-like domain of mouse (Mus musculus) Ang-2 conjugated to human IgG1 (mouse (Mus musculus))
T1 construct: also called Dimeric Mouse Ang-2FD; Mouse Ang-2FD-hFc
Test: SPR, antibody captured, room temp
Protocol: (§1) Antibody was captured on a goat anti-mouse IgG polyclonal antibody surface, a goat anti-human κ polyclonal antibody (Southern Biotech, Birmingham, Ala.) surface or a goat anti-human IgG polyclonal antibody (Jackson Immuno Research Lab, West Grove, Pa.) surface created through direct amine coupling to a BIACORE™ CM5 sensor chip to form a captured antibody surface. […] Antigen-antibody binding and dissociation were monitored in real time at room temperature. Kinetic analysis was performed to calculate KD and half-life of antigen/antibody complex dissociation.

In order of rising Kd:
1. B4  0.61 nM
2. B1  0.694 nM
3. B3  0.882 nM
4. B2  1.7 nM
5. B5  5.65 nM

In order of falling “T1/2” value:
1. B3  195 min
2. B4  30.8 min
3. B2  21.4 min
4. B1  16 min
5. B5  9.9 min

Target: T2, Dimeric fibrinogen-like domain of human Ang-2 conjugated to human IgG1 (human)
T2 construct: also called Dimeric Human Ang-2FD; Human Ang-2FD-hFc
Test: SPR, antibody captured, room temp
Protocol: as §1

In order of rising Kd:
1. B5  0.137 nM
2. B3  0.154 nM
3. B1  0.179 nM
4. B7  0.21 nM
5. B4  0.295 nM
6. B6  0.362 nM
7. B2  0.484 nM

In order of falling “T1/2” value:
1. B3  167 min
2. B5  58.4 min
3. B7  47 min
4. B1  42.7 min
5. B4  38 min
6. B2  35.5 min
7. B6  32.2 min

Target: T3, Dimeric fibrinogen-like domain of monkey (Macca fascicularis) Ang-2 conjugated to human IgG1 (monkey (Macca fascicularis))
T3 construct: also called Dimeric Monkey Ang-2FD; Monkey Ang-2FD-hFc
Test: SPR, antibody captured, room temp
Protocol: as §1

In order of rising Kd:
1. B3  0.234 nM
2. B1  0.73 nM
3. B7  0.842 nM
4. B6  1.47 nM
5. B5  1.58 nM
6. B4  6.17 nM
7. B2  7.33 nM

In order of falling “T1/2” value:
1. B3  169 min
2. B5  69.5 min
3. B7  36.6 min
4. B4  28.5 min
5. B1  25.7 min
6. B2  24.1 min
7. B6  23 min

Target: T1, Dimeric fibrinogen-like domain of mouse …
Test: blocking ELISA, 16.67 nM antibody, coated hTie-2-mFc
Protocol: (§2) Tie-2 is a natural receptor for Ang-2. Anti-Ang-2 antibodies were tested for their ability to block Ang-2 binding to human Tie-2 (hTie-2). hTie-2-mFc (a chimeric construct consisting of human Tie-2 conjugated to mouse IgG; SEQ ID NO:525) was coated onto 96-well plates at a concentration of 2 μg/ml and incubated overnight followed by washing four times in wash buffer (PBS with 0.05% Tween-20). The plate was then blocked with PBS (Irvine Scientific, Santa Ana, Calif.) containing 0.5% BSA (Sigma-Aldrich Corp., St. Louis, Mo.) for one hour at room temperature. In a separate plate, purified anti-Ang-2 antibodies, at a starting concentration of 50 nM, were serially diluted by a factor of three across the plate. […] The antibody/Ang-2FD-Fc mixture was then added to the plate containing hTie-2-mFc and incubated for one hour at room temperature.

In order of rising “Percent Blocking of Ang-2FD Binding to Tie-2” value (“Percent Blocking” below):
1. B6  53.7%
2. B7  55%
3. B5  83.9%
4. B2  90.9%
5. B1  96.6%
6. B3  98.4%
7. B4  98.6%

Target: T2, Dimeric fibrinogen-like domain of human …
Test: as above
Protocol: as §2

In order of rising “Percent Blocking” value:
1. B2  97.7%
2. B5  98.5%
3. B7  98.9%
4. B6  99.4%
5. B1  99.5%
6. B3  99.6%
7. B4  99.6%

Target: T3, Dimeric fibrinogen-like domain of …
Test: as above
Protocol: as §2

In order of falling “Percent Blocking” value:
1. B6  97.4%
2. B7  97.3%
3. B5  97.1%
4. B2  95.8%
5. B1  95.2%
6. B3  95.1%
7. B4  94.1%

Target: T4, Mouse Ang-2FD-hFc (mouse (Mus musculus))
T4 construct: Order of the pieces follows the name; also called Dimeric Mouse Ang-2FD
Test: ELISA, 16.67 nM antibody + 8 nM mouse Ang-2FD-hFc, on coated hTie-2-mFc (competitor)
Protocol: as §2

With B8 the “Percent Blocking” value was 97.1%.

Target: T1, Dimeric fibrinogen-like domain of mouse …
Test: SPR, hIgG1 antibody captured, room temp
Protocol: as §1
(§3) The above experiment was repeated using selected purified anti-Ang-2 antibodies cloned onto human IgG1.

In order of rising Kd:
1. B10  0.347 nM
2. B9  0.402 nM

In order of falling “T1/2” value:
1. B10  124 min
2. B9  37.6 min

Target: T2, Dimeric fibrinogen-like domain of human …
Test: SPR, hIgG1 antibody captured, room temp
Protocol: as §1, §3

In order of rising Kd:
1. B10  0.245 nM
2. B9  0.289 nM

In order of falling “T1/2” value:
1. B10  147 min
2. B9  38.8 min

Target: T3, Dimeric fibrinogen-like domain of …
Test: SPR, hIgG1 antibody captured, room temp
Protocol: as §1, §3

In order of falling Kd:
1. B10  0.44 nM
2. B9  0.354 nM

In order of falling “T1/2” value:
1. B10  84.1 min
2. B9  36.6 min
